In patent US20230203111A1 (published 2023):
Where a chain is given by its changes, count along the chain named. One block for each binder: values may come before it.

Molecular target: T1, TFR1 (human source) (human, UniProt P02786 89-760, limits assumed)
T1 construct: Soluble reagent added at 2 µg/mL to ferritin-coated ELISA plates; also called Tfr1 receptor; Tfr-1 receptor
Experiment: ELISA, ferritin coated, human TFR1 2 µg/mL

T1 sequence (P02786 89-760 limits assumed): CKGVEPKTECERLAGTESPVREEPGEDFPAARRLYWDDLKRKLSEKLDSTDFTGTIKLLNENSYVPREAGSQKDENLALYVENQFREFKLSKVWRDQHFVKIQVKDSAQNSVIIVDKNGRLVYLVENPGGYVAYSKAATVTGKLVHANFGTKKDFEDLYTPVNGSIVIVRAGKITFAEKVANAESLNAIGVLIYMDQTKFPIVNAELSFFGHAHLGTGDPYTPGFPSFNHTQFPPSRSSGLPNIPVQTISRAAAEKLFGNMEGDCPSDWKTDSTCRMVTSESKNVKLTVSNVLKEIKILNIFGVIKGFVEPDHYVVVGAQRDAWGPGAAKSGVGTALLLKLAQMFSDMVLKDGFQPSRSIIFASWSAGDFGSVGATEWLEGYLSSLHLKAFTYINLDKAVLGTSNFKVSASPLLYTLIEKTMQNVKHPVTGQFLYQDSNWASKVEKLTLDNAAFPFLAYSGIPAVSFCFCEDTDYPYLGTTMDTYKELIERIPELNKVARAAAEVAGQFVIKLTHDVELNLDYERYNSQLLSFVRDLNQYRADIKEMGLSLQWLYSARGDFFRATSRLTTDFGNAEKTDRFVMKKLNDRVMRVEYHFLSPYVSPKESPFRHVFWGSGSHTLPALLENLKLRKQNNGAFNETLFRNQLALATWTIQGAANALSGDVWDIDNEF

binding result: no binding
B1: HFn-Mt-3 (ligand)
chain: TTASTSQVRQNYHQDSEAAINRQINLELYASYVYLSMSYYFDRDDVALKNFAKYFLHQSHEEREHAEKLMKLQNQRGGRICLQDIKKPDSDDWESGLNAMESALHLEKNVNQSLLELHKLATDKNDPHLSDFIETHYLNEQVKAIKELGDHVTNLRKMGAPESGLAEYLFDKHTLGDSDNES
notes: cage protein; also called HFn-Mut-3

binding result: no binding
B2: HFn-Mt-5 (ligand)
chain: B1 chain with C81F, Q83C
notes: cage protein; also called HFn-Mut-5
